Results on 125 sequences are retold here after the supplement of paper PMC9112550, “Optimization of the antimicrobial peptide Bac7 by deep mutational scanning” (BMC Biology, 2022).

In the data set the test system is Escherichia coli TOP10. The data set can be described thus: shrunken log2 fold change of peptide-encoding DNA abundance (4.5 h post-induction vs induction); higher = less antimicrobial activity (less host growth inhibition). As to conditions: time post-induction: 4.5 h; library: site-saturation at positions 5, 18, 19, 20.
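Also: peptides expressed intracellularly from a pBAD plasmid library in pooled LB shake-flask culture, induced with 0.3% L-arabinose, DNA abundance read by NGS, three biological replicates, DESeq2 with apeglm shrinkage.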

For RRIRDRPPRLPRPRPRPFAIPRP, the “shrunken log2 fold change” value was -0.0496.

As for RRIRCRPPRLPRPRPRPRSHPRP, the “shrunken log2 fold change” value was -0.00365.

As for RRIRMRPPRLPRPRPRPFQQPRP, the “shrunken log2 fold change” value was -0.00146.

Turning to RRIRSRPPRLPRPRPRPYTQPRP, the “shrunken log2 fold change” value is -0.184.

Turning to RRIRNRPPRLPRPRPRPRHAPRP, the “shrunken log2 fold change” value was 0.0219.

For RRIRNRPPRLPRPRPRPPNCPRP, the “shrunken log2 fold change” value was 0.00301.

Turning to RRIRARPPRLPRPRPRPFFSPRP, the “shrunken log2 fold change” value was -0.0124.

Regarding RRIRSRPPRLPRPRPRPWIDPRP, the “shrunken log2 fold change” value was -0.615.

Consider RRIRNRPPRLPRPRPRPSCGPRP, for which the “shrunken log2 fold change” value was -0.178.

In the case of RRIRERPPRLPRPRPRPPYRPRP, the “shrunken log2 fold change” value stood at 0.0947.

As to RRIRLRPPRLPRPRPRPPERPRP, the “shrunken log2 fold change” value turned out to be 0.566.

RRIRWRPPRLPRPRPRPVVNPRP: the “shrunken log2 fold change” value was found to be 0.261.

As to RRIRCRPPRLPRPRPRPHRSPRP, the “shrunken log2 fold change” value is -0.114.

Turning to RRIRDRPPRLPRPRPRPMSQPRP, the “shrunken log2 fold change” value was -0.236.

With RRIRTRPPRLPRPRPRPGCEPRP, the “shrunken log2 fold change” value is -0.117.

Turning to RRIRHRPPRLPRPRPRPQAQPRP, the “shrunken log2 fold change” value was -0.208.

For the sequence RRIRLRPPRLPRPRPRPNLVPRP, the “shrunken log2 fold change” value is -0.283.

For the sequence RRIRERPPRLPRPRPRPHIKPRP, the “shrunken log2 fold change” value was -0.932.

For the sequence RRIRRRPPRLPRPRPRPFRMPRP, the “shrunken log2 fold change” value is -0.0671.

Take RRIRPRPPRLPRPRPRPKMYPRP: the “shrunken log2 fold change” value is -0.938.

RRIRTRPPRLPRPRPRPYCSPRP: the “shrunken log2 fold change” value is -0.858.

RRIRMRPPRLPRPRPRPIIFPRP: the “shrunken log2 fold change” value was -0.0918.

For RRIRFRPPRLPRPRPRPCYRPRP, the “shrunken log2 fold change” value was -0.573.

As for RRIRIRPPRLPRPRPRPWSEPRP, the “shrunken log2 fold change” value is -0.0763.

With RRIRGRPPRLPRPRPRPLWMPRP, the “shrunken log2 fold change” value stood at 0.343.

Regarding RRIRARPPRLPRPRPRPDTLPRP, the “shrunken log2 fold change” value is -0.0794.

On to RRIRFRPPRLPRPRPRPSFCPRP, for which the “shrunken log2 fold change” value was -0.373.

On to RRIRDRPPRLPRPRPRPMRHPRP, for which the “shrunken log2 fold change” value worked out at 0.089.

Take RRIRHRPPRLPRPRPRPCCIPRP: the “shrunken log2 fold change” value is -0.0109.

With RRIRDRPPRLPRPRPRPNNTPRP, the “shrunken log2 fold change” value was -0.747.

RRIRQRPPRLPRPRPRPKIQPRP: the “shrunken log2 fold change” value was -0.0232.

In the case of RRIRFRPPRLPRPRPRPADMPRP, the “shrunken log2 fold change” value is -0.155.

As to RRIRYRPPRLPRPRPRPRPNPRP, the “shrunken log2 fold change” value is -0.0554.

With RRIRQRPPRLPRPRPRPWVPPRP, the “shrunken log2 fold change” value is -0.152.

RRIRMRPPRLPRPRPRPGSHPRP: the “shrunken log2 fold change” value is 0.0978.

Take RRIRTRPPRLPRPRPRPNEKPRP: the “shrunken log2 fold change” value is -0.144.

On to RRIRERPPRLPRPRPRPFMVPRP, for which the “shrunken log2 fold change” value is -0.599.

For the sequence RRIRHRPPRLPRPRPRPLHEPRP, the “shrunken log2 fold change” value came to 0.0601.

RRIRHRPPRLPRPRPRPEKTPRP: the “shrunken log2 fold change” value came to 0.115.

Take RRIRSRPPRLPRPRPRPRTFPRP: the “shrunken log2 fold change” value stood at 0.00214.

As to RRIRCRPPRLPRPRPRPDGMPRP, the “shrunken log2 fold change” value is -0.239.

On to RRIRQRPPRLPRPRPRPHWKPRP, for which the “shrunken log2 fold change” value is -0.0878.

Consider RRIRHRPPRLPRPRPRPFPHPRP, for which the “shrunken log2 fold change” value was found to be 0.188.

For RRIRARPPRLPRPRPRPYVMPRP, the “shrunken log2 fold change” value is -0.211.

With RRIRCRPPRLPRPRPRPQLPPRP, the “shrunken log2 fold change” value was -0.104.

With RRIRLRPPRLPRPRPRPPKGPRP, the “shrunken log2 fold change” value amounted to 0.306.

Turning to RRIRHRPPRLPRPRPRPWINPRP, the “shrunken log2 fold change” value was -0.616.

As for RRIRFRPPRLPRPRPRPWYPPRP, the “shrunken log2 fold change” value was -0.321.

On to RRIRYRPPRLPRPRPRPNPLPRP, for which the “shrunken log2 fold change” value is -0.766.

As for RRIRPRPPRLPRPRPRPWFNPRP, the “shrunken log2 fold change” value is -0.541.

On to RRIRYRPPRLPRPRPRPHFNPRP, for which the “shrunken log2 fold change” value is -1.23.

Turning to RRIRARPPRLPRPRPRPFDRPRP, the “shrunken log2 fold change” value worked out at 0.0972.

Consider RRIRERPPRLPRPRPRPEHHPRP, for which the “shrunken log2 fold change” value is -0.543.

Consider RRIRYRPPRLPRPRPRPGSEPRP, for which the “shrunken log2 fold change” value is -0.202.

Consider RRIRCRPPRLPRPRPRPAACPRP, for which the “shrunken log2 fold change” value was determined as 0.202.

As to RRIRSRPPRLPRPRPRPFAFPRP, the “shrunken log2 fold change” value is -0.0807.

On to RRIRKRPPRLPRPRPRPYSSPRP, for which the “shrunken log2 fold change” value is -0.239.

As for RRIRMRPPRLPRPRPRPCIPPRP, the “shrunken log2 fold change” value is -0.159.

Regarding RRIRHRPPRLPRPRPRPAGFPRP, the “shrunken log2 fold change” value was -0.207.

In the case of RRIRPRPPRLPRPRPRPVGHPRP, the “shrunken log2 fold change” value worked out at 0.0338.

RRIRKRPPRLPRPRPRPTLPPRP: the “shrunken log2 fold change” value amounted to 0.878.

With RRIRNRPPRLPRPRPRPWPKPRP, the “shrunken log2 fold change” value was determined as 0.0323.

On to RRIRRRPPRLPRPRPRPKMQPRP, for which the “shrunken log2 fold change” value came to 0.336.

With RRIRMRPPRLPRPRPRPNTGPRP, the “shrunken log2 fold change” value turned out to be 0.151.

For the sequence RRIRRRPPRLPRPRPRPSIFPRP, the “shrunken log2 fold change” value is -0.192.

For RRIRRRPPRLPRPRPRPKFDPRP, the “shrunken log2 fold change” value amounted to 0.101.

Regarding RRIRPRPPRLPRPRPRPAPNPRP, the “shrunken log2 fold change” value is 1.16.

Consider RRIRNRPPRLPRPRPRPYDHPRP, for which the “shrunken log2 fold change” value is -0.219.

In the case of RRIRYRPPRLPRPRPRPQCCPRP, the “shrunken log2 fold change” value was -0.18.

In the case of RRIRNRPPRLPRPRPRPALLPRP, the “shrunken log2 fold change” value came out at 0.504.

With RRIRKRPPRLPRPRPRPESWPRP, the “shrunken log2 fold change” value worked out at 1.02.

For RRIRNRPPRLPRPRPRPGWGPRP, the “shrunken log2 fold change” value came to 0.492.

In the case of RRIRNRPPRLPRPRPRPGCEPRP, the “shrunken log2 fold change” value came out at 0.212.

For the sequence RRIRCRPPRLPRPRPRPKETPRP, the “shrunken log2 fold change” value was -0.0766.

With RRIRFRPPRLPRPRPRPSIWPRP, the “shrunken log2 fold change” value was -0.111.

Regarding RRIRKRPPRLPRPRPRPCKYPRP, the “shrunken log2 fold change” value was determined as 0.0409.

For RRIRSRPPRLPRPRPRPIIQPRP, the “shrunken log2 fold change” value is -0.429.

For RRIRFRPPRLPRPRPRPYGQPRP, the “shrunken log2 fold change” value was -0.101.

Regarding RRIRARPPRLPRPRPRPTGGPRP, the “shrunken log2 fold change” value stood at 0.836.

Consider RRIRPRPPRLPRPRPRPNPYPRP, for which the “shrunken log2 fold change” value is -0.465.

As for RRIRKRPPRLPRPRPRPNCRPRP, the “shrunken log2 fold change” value came to 0.00408.

Consider RRIRKRPPRLPRPRPRPDMNPRP, for which the “shrunken log2 fold change” value came out at 0.375.

Consider RRIRERPPRLPRPRPRPNVMPRP, for which the “shrunken log2 fold change” value was -0.403.

RRIRPRPPRLPRPRPRPHLDPRP: the “shrunken log2 fold change” value was 0.158.

Take RRIRERPPRLPRPRPRPHAWPRP: the “shrunken log2 fold change” value stood at 0.146.

Take RRIRWRPPRLPRPRPRPAFRPRP: the “shrunken log2 fold change” value was -0.015.

In the case of RRIRFRPPRLPRPRPRPFWRPRP, the “shrunken log2 fold change” value is 0.366.

With RRIRTRPPRLPRPRPRPAMAPRP, the “shrunken log2 fold change” value turned out to be 0.392.

As to RRIRHRPPRLPRPRPRPANVPRP, the “shrunken log2 fold change” value was -0.192.

RRIRFRPPRLPRPRPRPNGDPRP: the “shrunken log2 fold change” value was -0.131.

Consider RRIRKRPPRLPRPRPRPHSMPRP, for which the “shrunken log2 fold change” value was 0.0496.

With RRIRKRPPRLPRPRPRPEITPRP, the “shrunken log2 fold change” value was found to be 2.03.

As for RRIRDRPPRLPRPRPRPYVPPRP, the “shrunken log2 fold change” value is -0.604.

As for RRIRYRPPRLPRPRPRPYQDPRP, the “shrunken log2 fold change” value was -1.1.

In the case of RRIRYRPPRLPRPRPRPRHIPRP, the “shrunken log2 fold change” value was -0.767.

Regarding RRIRLRPPRLPRPRPRPPFIPRP, the “shrunken log2 fold change” value is -0.635.

In the case of RRIRKRPPRLPRPRPRPTNAPRP, the “shrunken log2 fold change” value was 0.733.

Take RRIRHRPPRLPRPRPRPIYTPRP: the “shrunken log2 fold change” value was -1.35.

With RRIRGRPPRLPRPRPRPIWAPRP, the “shrunken log2 fold change” value was 0.267.

As to RRIRQRPPRLPRPRPRPFSMPRP, the “shrunken log2 fold change” value was -0.0842.

Take RRIRTRPPRLPRPRPRPFQYPRP: the “shrunken log2 fold change” value was -0.0476.

As to RRIRSRPPRLPRPRPRPLECPRP, the “shrunken log2 fold change” value is -0.267.

RRIRDRPPRLPRPRPRPPCYPRP: the “shrunken log2 fold change” value is -0.0706.

Consider RRIRIRPPRLPRPRPRPVRKPRP, for which the “shrunken log2 fold change” value is -0.48.

As to RRIRNRPPRLPRPRPRPERSPRP, the “shrunken log2 fold change” value worked out at 0.129.

Regarding RRIRERPPRLPRPRPRPEHNPRP, the “shrunken log2 fold change” value is -0.203.

In the case of RRIRPRPPRLPRPRPRPLIVPRP, the “shrunken log2 fold change” value was -0.406.

Consider RRIRHRPPRLPRPRPRPNGDPRP, for which the “shrunken log2 fold change” value was -0.0512.

For RRIRPRPPRLPRPRPRPEDHPRP, the “shrunken log2 fold change” value was -0.131.

Regarding RRIRQRPPRLPRPRPRPAKIPRP, the “shrunken log2 fold change” value was 0.00963.

RRIRDRPPRLPRPRPRPCCWPRP: the “shrunken log2 fold change” value was found to be 0.582.

For the sequence RRIRKRPPRLPRPRPRPNMYPRP, the “shrunken log2 fold change” value is -0.14.

As for RRIRGRPPRLPRPRPRPPNYPRP, the “shrunken log2 fold change” value was determined as 0.299.

Turning to RRIRYRPPRLPRPRPRPHRLPRP, the “shrunken log2 fold change” value is -0.0157.

As for RRIRNRPPRLPRPRPRPHPVPRP, the “shrunken log2 fold change” value was -0.269.

Take RRIRERPPRLPRPRPRPRSPPRP: the “shrunken log2 fold change” value amounted to 0.0194.

As to RRIRTRPPRLPRPRPRPPGTPRP, the “shrunken log2 fold change” value turned out to be 0.331.

Regarding RRIRGRPPRLPRPRPRPCHYPRP, the “shrunken log2 fold change” value was found to be 0.0219.

Take RRIRGRPPRLPRPRPRPGRNPRP: the “shrunken log2 fold change” value worked out at 0.307.

Take RRIRSRPPRLPRPRPRPVSCPRP: the “shrunken log2 fold change” value was -0.00594.

RRIRDRPPRLPRPRPRPNEFPRP: the “shrunken log2 fold change” value is -0.0102.

Turning to RRIRRRPPRLPRPRPRPMREPRP, the “shrunken log2 fold change” value came to 0.0493.

Take RRIRIRPPRLPRPRPRPHPEPRP: the “shrunken log2 fold change” value was -0.023.

As to RRIRKRPPRLPRPRPRPNNNPRP, the “shrunken log2 fold change” value is -0.255.

With RRIRCRPPRLPRPRPRPMNFPRP, the “shrunken log2 fold change” value is -0.383.
